Experimental data from IntAct's records for PubMed 30073165.

B1: Cannabinoid receptor 1 (Homo sapiens), P21554 (parent)
chain: MKSILDGLADTTFRTITTDLLYVGSNDIQYEDIKGDMASKLGYFPQKFPLTSFRGSPFQEKMTAGDNPQLVPADQVNITEFYNKSLSSFKENEENIQCGENFMDIECFMVLNPSQQLAIAVLSLTLGTFTVLENLLVLCVILHSRSLRCRPSYHFIGSLAVADLLGSVIFVYSFIDFHVFHRKDSRNVFLFKLGGVTASFTASVGSLFLTAIDRYISIHRPLAYKRIVTRPKAVVAFCLMWTIAIVIAVLPLLGWNCEKLQSVCSDIFPHIDETYLMFWIGVTSVLLLFIVYAYMYILWKAHSHAVRMIQRGTQKSIIIHTSEDGKVQVTRPDQARMDIRLAKTLVLILVVLIICWGPLLAIMVYDVFGKMNKLIKTVFAFCSMLCLLNSTVNPIIYALRSKDLRHAFRSMFPSCEGTAQPLDNSMGDSDCLHKHANNAASVHRAAESCIKSTVKIAKVTMSVSTDTSAEAL
partner: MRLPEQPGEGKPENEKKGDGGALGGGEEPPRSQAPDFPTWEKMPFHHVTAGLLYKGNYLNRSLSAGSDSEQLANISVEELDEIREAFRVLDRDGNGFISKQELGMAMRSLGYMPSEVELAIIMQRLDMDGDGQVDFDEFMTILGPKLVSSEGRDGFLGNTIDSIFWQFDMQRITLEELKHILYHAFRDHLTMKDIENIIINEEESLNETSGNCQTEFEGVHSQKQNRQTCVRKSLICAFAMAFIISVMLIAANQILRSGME

Variants of: B1
Details: with cabp8_human CALN1, Q9BXU9

Row | effect of a mutation on the interaction | Variant
1 | disrupting interaction strength | MKSILDGLADTTFRTITTDLLYVGSNDIQYEDIKGDMASKLGYFPQKFPLTSFRGSPFQEKMTAGDNPQLVPADQVNITEFYNKSLSSFKENEENIQCGENFMDIECFMVLNPSQQLAIAVLSLTLGTFTVLENLLVLCVILHSRSLRCRPSYHFIGSLAVADLLGSVIFVYSFIDFHVFHRKDSRNVFLFKLGGVTASFTASVGSLFLTAIDRYISIHRPLAYKRIVTRPKAVVAFCLMWTIAIVIAVLPLLGWNCEKLQSVCSDIFPHIDETYLMFWIGVTSVLLLFIVYAYMYILWKAHSHAVRMIQRGTQKSIIIHAAEDGKVQVTRPDQARMDIRLAKTLVLILVVLIICWGPLLAIMVYDVFGKMNKLIKTVFAFCSMLCLLNSTVNPIIYALRSKDLRHAFRSMFPSCEGTAQPLDNSMGDSDCLHKHANNAASVHRAAESCIKSTVKIAKVTMSVSTDTSAEAL [T321A;S322A]
